What was measured:
Centromere B [1] = biological target: T1, Centromere B (UniProt P07199); assay: AtheNA, Ab 12.5 ug/ml
T1 sequence (looked up): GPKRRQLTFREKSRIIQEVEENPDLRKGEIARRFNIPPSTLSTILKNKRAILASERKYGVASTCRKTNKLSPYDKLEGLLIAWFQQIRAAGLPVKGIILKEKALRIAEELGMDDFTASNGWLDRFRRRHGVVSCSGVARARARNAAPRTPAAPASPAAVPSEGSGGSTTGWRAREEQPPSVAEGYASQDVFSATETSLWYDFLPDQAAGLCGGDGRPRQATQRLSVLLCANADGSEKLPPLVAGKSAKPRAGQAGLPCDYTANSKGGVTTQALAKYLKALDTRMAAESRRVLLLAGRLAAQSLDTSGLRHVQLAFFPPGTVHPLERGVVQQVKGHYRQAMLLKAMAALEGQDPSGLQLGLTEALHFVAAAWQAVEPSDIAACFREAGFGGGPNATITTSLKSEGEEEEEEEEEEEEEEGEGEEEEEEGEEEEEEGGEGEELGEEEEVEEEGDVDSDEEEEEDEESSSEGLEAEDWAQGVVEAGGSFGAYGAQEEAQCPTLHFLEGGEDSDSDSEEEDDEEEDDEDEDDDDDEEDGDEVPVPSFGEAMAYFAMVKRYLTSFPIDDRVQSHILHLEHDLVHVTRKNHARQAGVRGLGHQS

Jo-1 [2] = biological target: T2, Jo-1 (UniProt P12081); assay: AtheNA, Ab 12.5 ug/ml
T2 sequence (looked up): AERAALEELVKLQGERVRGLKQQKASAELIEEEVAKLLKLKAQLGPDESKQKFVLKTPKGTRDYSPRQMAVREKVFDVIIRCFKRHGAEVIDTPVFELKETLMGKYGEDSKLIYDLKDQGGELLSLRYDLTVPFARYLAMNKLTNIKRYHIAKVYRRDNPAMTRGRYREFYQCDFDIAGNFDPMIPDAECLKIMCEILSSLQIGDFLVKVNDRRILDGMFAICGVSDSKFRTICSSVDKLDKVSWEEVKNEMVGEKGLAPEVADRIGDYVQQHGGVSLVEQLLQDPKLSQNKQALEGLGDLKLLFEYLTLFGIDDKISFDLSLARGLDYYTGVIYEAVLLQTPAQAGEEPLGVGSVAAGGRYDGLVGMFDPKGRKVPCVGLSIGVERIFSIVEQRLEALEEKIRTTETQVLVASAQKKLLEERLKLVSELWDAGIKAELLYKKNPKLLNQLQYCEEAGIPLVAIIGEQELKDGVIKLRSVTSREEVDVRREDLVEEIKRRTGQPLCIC

RNP (ribonucleoprotein) [3] = assay: AtheNA, Ab 12.5 ug/ml
Sm (Smith antigen) [4] = assay: AtheNA, Ab 12.5 ug/ml
Histones [5] = assay: AtheNA, Ab 12.5 ug/ml
SSA [6] = assay: AtheNA, Ab 12.5 ug/ml
Scl-70 [7] = biological target: Scl-70 (UniProt P11387); assay: AtheNA, Ab 12.5 ug/ml
Chain of Scl-70 (P11387 2-765 limits assumed): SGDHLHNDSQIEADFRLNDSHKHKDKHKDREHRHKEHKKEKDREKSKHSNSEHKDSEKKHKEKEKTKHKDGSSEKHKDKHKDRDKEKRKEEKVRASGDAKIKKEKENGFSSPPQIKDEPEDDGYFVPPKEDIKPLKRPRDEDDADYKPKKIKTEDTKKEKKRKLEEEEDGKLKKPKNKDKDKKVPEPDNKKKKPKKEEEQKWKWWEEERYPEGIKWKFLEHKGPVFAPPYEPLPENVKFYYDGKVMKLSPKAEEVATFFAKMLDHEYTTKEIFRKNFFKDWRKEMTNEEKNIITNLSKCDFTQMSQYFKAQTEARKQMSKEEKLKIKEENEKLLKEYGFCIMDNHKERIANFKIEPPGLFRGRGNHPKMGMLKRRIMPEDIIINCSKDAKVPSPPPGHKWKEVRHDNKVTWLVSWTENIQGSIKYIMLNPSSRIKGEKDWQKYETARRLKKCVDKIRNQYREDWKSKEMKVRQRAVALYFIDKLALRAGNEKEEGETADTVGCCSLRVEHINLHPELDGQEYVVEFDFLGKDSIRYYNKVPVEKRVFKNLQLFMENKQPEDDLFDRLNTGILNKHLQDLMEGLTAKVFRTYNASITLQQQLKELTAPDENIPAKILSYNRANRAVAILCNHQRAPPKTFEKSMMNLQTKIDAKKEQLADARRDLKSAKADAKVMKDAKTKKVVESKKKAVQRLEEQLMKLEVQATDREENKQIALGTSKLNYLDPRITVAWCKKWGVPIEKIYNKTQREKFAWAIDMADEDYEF

AtheNA, Ab 50 ug/ml = substrate: T3, SSB (UniProt P05455); assay: AtheNA, Ab 50 ug/ml
T3 sequence (looked up): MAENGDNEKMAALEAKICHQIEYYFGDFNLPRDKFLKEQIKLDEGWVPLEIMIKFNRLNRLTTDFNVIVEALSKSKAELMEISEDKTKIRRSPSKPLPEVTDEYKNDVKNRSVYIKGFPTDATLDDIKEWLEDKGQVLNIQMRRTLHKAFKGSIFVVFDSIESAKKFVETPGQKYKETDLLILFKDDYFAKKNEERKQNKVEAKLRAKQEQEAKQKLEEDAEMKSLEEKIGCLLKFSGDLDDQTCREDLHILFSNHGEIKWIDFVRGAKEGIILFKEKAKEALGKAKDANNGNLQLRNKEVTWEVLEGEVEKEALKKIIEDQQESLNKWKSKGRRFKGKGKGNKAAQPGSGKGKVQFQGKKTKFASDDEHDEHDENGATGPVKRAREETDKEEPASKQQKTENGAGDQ

Centromere B [8] = biological target: T1, Centromere B; assay: AtheNA, Ab 50 ug/ml
Jo-1 [9] = biological target: T2, Jo-1; assay: AtheNA, Ab 50 ug/ml
Sm (Smith antigen) [10] = assay: AtheNA, Ab 50 ug/ml
Histones [11] = assay: AtheNA, Ab 50 ug/ml
SSA [12] = assay: AtheNA, Ab 50 ug/ml
AtheNA, Ab 25 ug/ml = substrate: T3, ; assay: AtheNA, Ab 25 ug/ml
Centromere B [13] = biological target: T1, Centromere B; assay: AtheNA, Ab 6.25 ug/ml
Jo-1 [14] = biological target: T2, Jo-1; assay: AtheNA, Ab 6.25 ug/ml
RNP (ribonucleoprotein) [15] = assay: AtheNA, Ab 6.25 ug/ml
Sm (Smith antigen) [16] = assay: AtheNA, Ab 6.25 ug/ml
Histones [17] = assay: AtheNA, Ab 6.25 ug/ml
SSA [18] = assay: AtheNA, Ab 6.25 ug/ml
Scl-70 [19] = biological target: Scl-70 (UniProt P11387); assay: AtheNA, Ab 6.25 ug/ml
AtheNA, Ab 12.5 ug/ml = substrate: T3, ; assay: AtheNA, Ab 12.5 ug/ml
Centromere B [20] = biological target: T1, Centromere B; assay: AtheNA, Ab 25 ug/ml
Jo-1 [21] = biological target: T2, Jo-1; assay: AtheNA, Ab 25 ug/ml
RNP (ribonucleoprotein) [22] = assay: AtheNA, Ab 25 ug/ml
Sm (Smith antigen) [23] = assay: AtheNA, Ab 25 ug/ml
Histones [24] = assay: AtheNA, Ab 25 ug/ml
SSA [25] = assay: AtheNA, Ab 25 ug/ml
Scl-70 [26] = biological target: Scl-70 (UniProt P11387); assay: AtheNA, Ab 25 ug/ml
AtheNA, Ab 6.25 ug/ml = substrate: T3, ; assay: AtheNA, Ab 6.25 ug/ml

Athena reading (relative luminescence units) (Centromere B [1]): 233
Athena reading (relative luminescence units) (Jo-1 [2]): 19
Athena reading (relative luminescence units) (RNP (ribonucleoprotein) [3]): 78
Athena reading (relative luminescence units) (Sm (Smith antigen) [4]): 258
Athena reading (relative luminescence units) (Histones [5]): 234
Athena reading (relative luminescence units) (SSA [6]): 185
Athena reading (relative luminescence units) (Scl-70 [7]): 50
Athena reading (relative luminescence units) (AtheNA, Ab 50 ug/ml): 207
Athena reading (relative luminescence units) (Centromere B [8]): 84
Athena reading (relative luminescence units) (Jo-1 [9]): 145
Athena reading (relative luminescence units) (Sm (Smith antigen) [10]): 128
Athena reading (relative luminescence units) (Histones [11]): 138
Athena reading (relative luminescence units) (SSA [12]): 177
Athena reading (relative luminescence units) (AtheNA, Ab 25 ug/ml): 175
Athena reading (relative luminescence units) (Centromere B [13]): 208
Athena reading (relative luminescence units) (Jo-1 [14]): 7
Athena reading (relative luminescence units) (RNP (ribonucleoprotein) [15]): 40
Athena reading (relative luminescence units) (Sm (Smith antigen) [16]): 184
Athena reading (relative luminescence units) (Histones [17]): 154
Athena reading (relative luminescence units) (SSA [18]): 44
Athena reading (relative luminescence units) (Scl-70 [19]): 31
Athena reading (relative luminescence units) (AtheNA, Ab 12.5 ug/ml): 63
Athena reading (relative luminescence units) (Centromere B [20]): 129
Athena reading (relative luminescence units) (Jo-1 [21]): 72
Athena reading (relative luminescence units) (RNP (ribonucleoprotein) [22]): 69
Athena reading (relative luminescence units) (Sm (Smith antigen) [23]): 165
Athena reading (relative luminescence units) (Histones [24]): 193
Athena reading (relative luminescence units) (SSA [25]): 224
Athena reading (relative luminescence units) (Scl-70 [26]): 62
Athena reading (relative luminescence units) (AtheNA, Ab 6.25 ug/ml): 15
B1: CH236_4A/293i (antibody, from a related filing, V domains shown)
VH: QVQLVQSGAAVKRPGASVTISCRASGYTFTTYYIHWVRQAPGQRLELMGMIDPSRGRTDYAQKFQGRVTMSRDTSTSTLYMELRSLRPDDTALYYCVRNVGTEGSLLHYDYWGQGTLVTVSS
VL: EIVLTQSPATLSVSPGERVTLSCRASQSVRNNLAWYRQKRGQAPRLLIYGASTRATGIPARFSGSGSGTEFTLTISSMQSEDFAVYYCQQYNNWWTFGQGTKVEIK

Source: US10344077
